In EP1100818B1 (WHITEHEAD INSTITUTE FOR BIOMEDICAL RESEARCH, dated 2013):

What was measured:
[1] = target: N36 peptide of HIV-1 gp41 (HIV-1); test: circular dichroism at 222 nm, thermal melt, 10 µM of each peptide, PBS pH 7.0
[2] = target: N36 peptide of HIV-1 gp41 (HIV-1); test: circular dichroism at 222 nm, thermal melt
[3] = target: T1, HIV-1 HXB2 envelope glycoprotein (gp41 subunit, N-helix coiled-coil) (HIV-1 (HXB2), UniProt P04578 512-856); test: cell-based or functional assay
[4] = target: T1, HIV-1 HXB2 envelope glycoprotein (gp41 …); test: cell-based or functional assay; remark: listed apart in the source

C34 Trp^631→Ala (peptide)
Tm (apparent melting temperature of the N36/C34 complex) [1]: 37 °C

C34 Ile^635→Ala (peptide)
Tm (apparent melting temperature of the N36/C34 complex) [1]: 55 °C

C34 Arg^633→Ala (peptide)
Tm (apparent melting temperature of the N36/C34 complex) [1]: 65 °C

C34 Trp^631→Phe (peptide)
Tm (apparent melting temperature of the N36/C34 complex) [2]: 59 °C

C34 Met^629→Ala (peptide)
Tm (apparent melting temperature of the N36/C34 complex) [1]: 66 °C

C34 Trp^628→Ala (peptide)
Tm (apparent melting temperature of the N36/C34 complex) [1]: 53 °C

C34 Trp^631→Leu (peptide)
Tm (apparent melting temperature of the N36/C34 complex) [2]: 50 °C

C34 Trp^631→Gly (peptide)
Tm (apparent melting temperature of the N36/C34 complex) [2]: 35 °C

C34 Trp^631→Nal (peptide)
Tm (apparent melting temperature of the N36/C34 complex) [2]: 62 °C

C34 Trp^631→Abu (peptide)
Tm (apparent melting temperature of the N36/C34 complex) [2]: 43 °C

C34 Trp^631→Val (peptide)
Tm (apparent melting temperature of the N36/C34 complex) [2]: 43 °C

C34 peptide of HIV-1 gp41, wildtype
Tm (apparent melting temperature of the N36/C34 complex) [1]: 66 °C

B1: C34 Arg^633→Ala (peptide)
peptide: Ac-WMEWDAEINNYTSLIHSLIEESQNQQEKNEQELL-NH2
IC50 (nM) cell fusion [3]: 0.76 nM
IC50 (nM) viral entry [3]: 2.6 nM

B2: C34 Trp^631→Gly (peptide)
peptide: Ac-WMEGDREINNYTSLIHSLIEESQNQQEKNEQELL-NH2
IC50 (nanomolar) cell fusion [4]: 25 nM
IC50 (nanomolar) virus entry [4]: 38 nM

B3: C34 Trp^631→Val (peptide)
peptide: Ac-WMEVDREINNYTSLIHSLIEESQNQQEKNEQELL-NH2
IC50 (nanomolar) cell fusion [4]: 4.5 nM
IC50 (nanomolar) virus entry [4]: 13 nM

B4: C34 Trp^631→Leu (peptide)
peptide: Ac-WMELDREINNYTSLIHSLIEESQNQQEKNEQELL-NH2
IC50 (nanomolar) cell fusion [4]: 3.2 nM
IC50 (nanomolar) virus entry [4]: 5.3 nM

B5: C34 Trp^631→Phe (peptide)
peptide: Ac-WMEFDREINNYTSLIHSLIEESQNQQEKNEQELL-NH2
IC50 (nanomolar) cell fusion [4]: 1.6 nM
IC50 (nanomolar) virus entry [4]: 3.6 nM

B6: C34 Trp^631→Ala (peptide)
peptide: Ac-WMEADREINNYTSLIHSLIEESQNQQEKNEQELL-NH2
decrease in inhibitory activity against wildtype C34 [4]: ~30 fold

B7: C34 Ile^635→Ala (peptide)
peptide: Ac-WMEWDREANNYTSLIHSLIEESQNQQEKNEQELL-NH2
decrease in inhibitory activity against wildtype C34 [4]: ~2 fold
IC50 (nM) cell fusion [3]: 0.96 nM
IC50 (nM) viral entry [3]: 4.1 nM
